These results are taken from article PMC5577056 (Scientific Reports, 2017).

What all share (details): both partners purified
The target of test [1] is T1, lysozyme (Gallus gallus (hen egg white), by PDB …, UniProt P00698).
T1 construct: lysozyme, the antigen of the anti-lysozyme antibody HyHEL-10; also called antigen
In words: ITC; antibody (about 30 uM) titrated into lysozyme (about 2 uM), 25 injections of 10 ul; PBS (20 mM, pH 7.4), 143 mM NaCl; 298 K (25 °C). (In general: ITC needs no label: the signal is the heat of the interaction.)

The target in test [2] is T1, lysozyme. In words: ITC; antibody (about 30 uM) titrated into lysozyme (about 2 uM), 25 injections of 10 ul; PBS (20 mM, pH 7.4), 143 mM NaCl; 293 K (20 °C).
Test [3] concerns the target T1, lysozyme. Description: ITC; antibody (about 30 uM) titrated into lysozyme (about 2 uM), 25 injections of 10 ul; PBS (20 mM, pH 7.4), 143 mM NaCl; 303 K (30 °C).
For test [4], the target named is T1, lysozyme. In words: ITC; antibody (about 30 uM) titrated into lysozyme (about 2 uM), 25 injections of 10 ul; PBS (20 mM, pH 7.4), 143 mM NaCl; 293 K (20 °C). This is another data set of the same source.

T1 sequence (P00698 19-147): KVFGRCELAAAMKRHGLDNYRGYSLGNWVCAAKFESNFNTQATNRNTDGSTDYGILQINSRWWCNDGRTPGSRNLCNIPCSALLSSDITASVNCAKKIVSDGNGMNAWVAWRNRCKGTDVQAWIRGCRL

B1: HyHEL-10 Fv fragment, H:R71A mutant (antibody, V domains shown)
VH: DVQLQESGPSLVKPSQTLSLTCSVTGDSITSDYWSWIRKFPGNRLEYMGYVSYSGSTYYNPSLKSRISITADTSKNQYYLDLNSVTTEDTATYYCANWDGDYWGQGTLVTVSA
VL: DIVLTQSPATLSVTPGNSVSLSCRASQSIGNNLHWYQQKSHESPRLLIKYASQSISGIPSRFSGSGSGTDFTLSINSVETEDFGMYFCQQSNSWPYTFGGGTKLEIK
notes: as the VH of m1, with R71A; as the VL of m1; Fv fragment; the text throughout has H:R71A
For B1, the dH was -27.1 ± 0.086 kcal/mol in test [1], -23.78 ± 0.0598 kcal/mol in test [2] and -31.1 ± 0.347 kcal/mol in test [3].

B2: HyHEL-10 Fv fragment, L:R45A mutant (antibody, V domains shown)
VH: DVQLQESGPSLVKPSQTLSLTCSVTGDSITSDYWSWIRKFPGNRLEYMGYVSYSGSTYYNPSLKSRISITRDTSKNQYYLDLNSVTTEDTATYYCANWDGDYWGQGTLVTVSA
VL: DIVLTQSPATLSVTPGNSVSLSCRASQSIGNNLHWYQQKSHESPALLIKYASQSISGIPSRFSGSGSGTDFTLSINSVETEDFGMYFCQQSNSWPYTFGGGTKLEIK
notes: as the VH of m1; as the VL of m1, with R45A; Fv fragment; the text throughout has L:R45A
Turning to B2, the results for the dH in test [1], in test [4] and in test [3] were -17.57 ± 0.0359 kcal/mol, -16.46 ± 0.0502 kcal/mol and -18.97 ± 0.055 kcal/mol, respectively.
